Test results from patent US8859237B2, “Diguanylate cyclase method of producing the same and its use in the manufacture of cyclic-di-GMP and analogues thereof” (priority 2009, dated 2014).
Substitutions are numbered along the chain they refer to. Names and notes keep the numbering of the source. “Also recorded” adds a separate entry of the source.

B1: R158A: tDGC diguanylate cyclase domain with I-site arginine 158 replaced by alanine (protein, listed as Thermotoga maritima)
chain: MGSSHHHHHHSSGLVPRGSHMKELEYMAYHDPLTGLPNRRYFFELGNRYLDLAKREGKKVFVLFVDLAGFKAINDTYGHLSGDEVLKTVSKRILDRVARSDVVARYGGDEFTILLYDMKEEYLKSLLERILSTFREPVRVENKHLSVTPNIGVARFPEDGENLEELLKVADMRMYKAKEMKVPYFSLS
modifications: DOMAIN (24)..(181) example of GGDEF domain
notes: tDGC diguanylate cyclase domain with I-site arginine 158 replaced by alanine
B2: R158Q: tDGC diguanylate cyclase domain with I-site arginine 158 replaced by glutamine (protein, listed as Thermotoga maritima)
chain: B1 chain with A98Q
modifications: DOMAIN (24)..(181) example of GGDEF domain
notes: tDGC diguanylate cyclase domain with I-site arginine 158 replaced by glutamine

Experiments:
[1] = tested on: human colon carcinoma cells; details: basal and growth factor-induced; cited from earlier work
S. aureus = details: murine mastitis infection; cited from earlier work
Staphylococcus aureus = details: exogenous c-di-GMP; incl. methicillin-resistant strains; cited from earlier work
[2] = c-di-GMP binding at the I-site of tDGC (absorption spectrum 256 nm peak, HPLC of denatured protein); parameters: species or system Thermotoga maritima; details: purified protein, FIG. 1
Experimental: The observation was surprising since the synthesis of c-di-GMP from two molecules of GTP requires the DGC protein to function in its dimeric form.
However, despite the improved thermostability, we found the overall production yield was low even at high substrate concentration with prolonged incubation.

[3] = Diguanylate cyclase (DGC) activity assay and steady-state kinetic measurement (HPLC, GTP to c-di-GMP); assay type: biochemical, Thermotoga maritima
Experimental: Enzyme assays were conducted to determine the optimal salt concentration of the DGC reaction, with the buffer that contains 50 mM Tris-HCl (pH 8.0), 20 mM MgCl2, 100 μM GTP, 10 μM Enzyme, and 0-500 mM NaCl. Enzyme assays were conducted to determine the optimal pH concentration of the DGC reaction, with the buffer that contains 50 mM Tris-HCl (pH 7.0-9.0), 250 mM NaCl, 20 mM MgCl2, 100 μM GTP, 10 μM Enzyme. Reaction mixtures were incubated in a waterbath at 55° C. for 15 minutes. After heating at 95° C. for 10 min and centrifugation at 14,000 rpm for 5 min to remove protein precipitate, the supernatant was filtered before loading onto the Eclipse XDB-C18 (4.6×150 mm) column for monitoring the turnover from GTP to c-di-GMP using an Agilent LC1200 system (Mobile phase: 20 mM Triethylammonium bicarbonate (pH 7.0, pH adjusted using acetic acid), 9% Methanol, Flow rate: 1 mL/min). For thermostability analysis, the mutant protein was incubated at 45, 55 and 65° C., aliquots of protein solution were taken out at different time points to add into the reaction mixture that contains 50 mM Tris-Cl (pH 7.5), 250 mM NaCl, 20 mM MgCl2 and 100 μM GTP. The reaction was allowed to last for 10 min before being stopped and analyzed for GTP turnover by using HPLC. For product yield and steady state kinetic measurement, the standard reaction mixture include 50 mM Tris-Cl (pH 8), 20 mM MgCl2, 300 mM NaCl, 1 μM Enzyme, 5-800 μM GTP. Reactions were incubated at 55° C. for 1-60 minutes to obtain linear range of progress. For steady kinetics, data was fitted using GraphPad (Prism) to obtain the kinetic parameters.

[4] = Size-exclusion chromatography, oligomeric state in solution; assay type: physicochemical, Thermotoga maritima; details: Superdex 75, 4° C., FIG. 3
Experimental: Gel filtration was performed at 4° C. using the AKTA FPLC system equipped with a Superdex 75 HR 16/60 column (Amersham Biosciences). The buffer used for gel filtration is comprised of 50 mM Tris-Cl (pH 8.0), 300 mM NaCl, 5% Glycerol, 1 mM DTT. Fractions containing the recombinant protein were concentrated using Amicon concentrator (Millipore) to a final concentration of ca. 5 mg/ml as measured using Bradford assay. Concentrated proteins were stored in −80° C. degree after flash-freeze using liquid nitrogen. Mutant proteins were expressed, purified and stored following the same procedure. The molecular weight and oligomeric state of the protein was estimated based on the standard curve generated by using the standard proteins that include albumin, ovalbumin, chemotrypsinogen, RNase A. The final yield of the recombinant protein was 12-15 mg per liter culture for the wild type the mutant enzyme.

Molecule	effect on cell proliferation [1]	effect on colonization and biofilm formation (S. aureus)	effect on in vitro cell-cell interactions and biofilm formation (Staphylococcus aureus)	c-di-GMP binding / association with the protein [2]	NaCl concentration at which the enzyme is most efficient ([3]; 0-500 mM NaCl screened, 55° C., FIG. 4)	GTP concentration above which production yield decreased (substrate inhibition) ([3]; FIG. 2, 55° C.)	pH at which the enzyme is most efficient ([3]; pH 7.0-9.0 screened, 55° C., FIG. 4)	kcat of GTP condensation ([3]; steady-state kinetics, 55° C.)	GTP substrate turned over into c-di-GMP ([3]; under the assay conditions)	oligomeric form in solution [4]
Nc1nc2c(ncn2[C@@H]2O[C@@H]3COP(=O)(O)O[C@H]4[C@@H](O)[C@H](n5cnc6c(=O)[nH]c(N)nc65)O[C@@H]4COP(=O)(O)O[C@H]3[C@H]2O)c(=O)[nH]1 [c-di-GMP, Bis-(3′-5′)-cyclic dimeric guanosine monophosphate]	inhibiting basal and growth factor-induced proliferation	inhibit colonization and biofilm formation	reduce in vitro cell-cell interactions and biofilm formation							
B1				c-di-GMP is no longer associated with the protein; also recorded: abolished the c-di-GMP binding capability	250 to 300 mM	ca. 0.8 mM	7.5	0.0433 s⁻¹	~100%	monomer
B2				abolished the c-di-GMP binding capability						
